According to patent US20210206877A1 (Genentech, published 2021):
Residue numbers refer to the chain shown, from its start.

B1: 5878 (antibody, V domains shown)
VH: EVQLLESGGGLVQPGGSLRLSCAASGFTFSSYAMSWVRQAPGKGLEWVSAISGSGISTPYADSVKGRFTISRDNSKNTLYLQMNSLRAEDTAVYYCAKGAGHGSYVKGWFDPWGQGTLVTVSS
VL: EIVLTQSPATLSLSPGERATLSCRASQSVSSYLAWYQQKPGQAPRLLIYDASNRATGIPARFSGSGSGTDFTLTISSLEPEDFAVYYCQQSVNFPFTFGGGTKVEIK
B2: 5532 (antibody, V domains shown)
VH: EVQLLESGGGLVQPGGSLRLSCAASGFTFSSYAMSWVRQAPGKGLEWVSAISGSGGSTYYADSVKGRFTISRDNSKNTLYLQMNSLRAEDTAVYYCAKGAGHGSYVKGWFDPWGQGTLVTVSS
VL: B1 VL with V92S
B3: 5880 (antibody, V domains shown)
VH: B1 VH with S30G, S35T
VL: B1 VL
B4: 5592 (antibody, V domains shown)
VH: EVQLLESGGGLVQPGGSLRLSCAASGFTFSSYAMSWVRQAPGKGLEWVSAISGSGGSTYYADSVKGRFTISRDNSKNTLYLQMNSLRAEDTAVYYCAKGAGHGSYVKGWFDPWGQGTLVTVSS
VL: B1 VL
B5: 5930 (antibody, V domains shown)
VH: QVQLVQSGAEVKKPGSSVKVSCKASGGTLSGYAISWVRQAPGQGLEWMGNIIPGFGTANYAQKSQGRVTITADESTSTAYMELSSLRSEDTAVYYCARSGGTRYGMLDVWGQGTMVTVSS
VL: EIVMTQSPATLSVSPGERATLSCRASQSVGSNLAWYQQKPGQAPRLLIYGASTRATGIPARFSGSGSGTEFTLTISSLQSEDFAVYYCQQLYTWPPRTFGGGTKVEIK
B6: 5933 (antibody, V domains shown)
VH: QLQLQESGPGLVKPSETLSLTCTVSGGSISRGSYYWGWIRQPPGKGLEWIGMIYYSGSTWYNPSLKSRVTISVDTSKNQFSLKLSSVTAADTAVYYCARVGHGVSYFDLWGRGTLVTVSS
VL: B5 VL with M4L, V13L, G30S, N32Y, T53K, E70D, Q79E, S80P, L91V
B7: 6296 (antibody, V domains shown)
VH: B6 VH with R31S, G32S, M52N, W60Y, K66R, S67G, V100L, V104Y, S105N
VL: EIVLTQSPATLSLSPGERATLSCRASQSVSSYLAWFQQKPGQAPRLLIYDASNRATGIPARFSGSGSGTDFTLTISSLEPEDFAVYYCQQVYVWPPRTFGGGTKVEIK
B8: 5932 (antibody, V domains shown)
VH: B6 VH with V104I
VL: B7 VL with F36Y, N53K, V93T
B9: 6279 (antibody, V domains shown)
VH: B5 VH with L29F, S30R, S64F, R103K
VL: B5 VL with G30S, Y92L, T93L
B10: 5988 (antibody, V domains shown)
VH: B5 VH
VL: B5 VL with E1G
B11: 6280 (antibody, V domains shown)
VH: B6 VH with I29T, R31S, G32S, M52S, Y55R, W60Y, L65F, V104I
VL: B7 VL with F36Y, V91S, Y92L, V93T
B12: 6273 (antibody, V domains shown)
VH: B5 VH with L29F, A33G, S64F, R103K
VL: B5 VL with G30S, L33I, Y92L, T93L
B13: 6271 (antibody, V domains shown)
VH: B5 VH with L29I, A33G, S64F, R103K
VL: B5 VL with G30S, Y92I, T93L
B14: 5983 (antibody, V domains shown)
VH: B6 VH with R31S, G32S, M52N, W60Y, K66R, S81F, V100L, V104Y, S105N
VL: B7 VL
B15: 6275 (antibody, V domains shown)
VH: B5 VH with L29F, S30R, S64F, R103K
VL: B5 VL with G30S, Y92F, T93L
B16: 5931 (antibody, V domains shown)
VH: B6 VH with R31W, G32S, G37S, M52S, Y55R, S58R, W60Y, S67G, V104I, S105N
VL: B7 VL with F36Y, N53K, V93T
B17: 5986 (antibody, V domains shown)
VH: B6 VH with R31S, G32S, M52Q, W60F, V100L, V104Y
VL: B7 VL
B18: 6272 (antibody, V domains shown)
VH: B5 VH with L29F, A33G, S64F, R103K
VL: B5 VL with G30S, Y92F, T93L
B19: 6297 (antibody, V domains shown)
VH: B6 VH with S28P, R31S, G32S, M52N, W60Y, K66R, S67G, V100L, V104Y, S105N
VL: B7 VL
B20: 6288 (antibody, V domains shown)
VH: B6 VH with I29T, R31S, G32S, M52S, Y55R, W60Y, K66R, V104I
VL: B7 VL with F36Y, V91S, Y92L, V93T
B21: 6270 (antibody, V domains shown)
VH: B5 VH with L29F, A33G, S64F, R103K
VL: B5 VL with G30S, Y92L, T93L
B22: 6293 (antibody, V domains shown)
VH: B6 VH with R31S, G32S, K66R
VL: B7 VL with F36Y, N53K, V93T
B23: 6289 (antibody, V domains shown)
VH: B6 VH with R31S, G32S, M52S, Y55R, W60Y, K66R, A98V, V104I
VL: B7 VL with F36Y, V91S, Y92L, V93T
B24: 5990 (antibody, V domains shown)
VH: B6 VH with R31W, G32S, G37S, M52S, Y55R, S58R, W60Y, V104I, S105N
VL: B7 VL with Q27R, S30N, F36Y, N53K, V93T
B25: 5985 (antibody, V domains shown)
VH: B6 VH with R31S, G32S, M52N, W60Y, V100L, V104Y, S105N
VL: B7 VL
B26: 6294 (antibody, V domains shown)
VH: B6 VH with R31S, G32S, Y34H
VL: B7 VL with F36Y, N53K, V93T
B27: 5987 (antibody, V domains shown)
VH: B5 VH
VL: B5 VL with G30S, Y92F, T93L
B28: 6291 (antibody, V domains shown)
VH: B6 VH with R31S, G32S
VL: B7 VL with F36Y, D50G, N53K, V93T
B29: 6290 (antibody, V domains shown)
VH: B6 VH with R31S, G32S, H102L
VL: B7 VL with F36Y, N53K, V93T
B30: 5984 (antibody, V domains shown)
VH: B6 VH with R31S, G32S, M52N, W60Y, S67G, V100L, V104Y, S105N
VL: B7 VL
B31: 5982 (antibody, V domains shown)
VH: B6 VH with R31S, G32S, M52N, W60Y, V100L, V104Y
VL: B7 VL
B32: 6276 (antibody, V domains shown)
VH: B5 VH with L29F, S30R, F55L, G56S, S64F, R103K
VL: B5 VL with G30S, Y92I, T93L
B33: 6274 (antibody, V domains shown)
VH: B5 VH with L29F, A33G, S64F, R103K
VL: B5 VL with G30S, N32H, Y92I, T93L
B34: 6285 (antibody, V domains shown)
VH: B6 VH with I29T, R31S, G32S, M52S, Y55R, W60Y, V104I
VL: B7 VL with F36Y, N53S, V91S, Y92L, V93T
B35: 6298 (antibody, V domains shown)
VH: B6 VH with R31W, G32S, G37S, M52N, W60Y, V100L, V104Y, S105N
VL: B7 VL

Assays:
Assay in all cases: cell-based or functional assay
human BACE1 ECD = human BACE1 ECD (human, UniProt P56817)
Chain of human BACE1 ECD (P56817 22-457): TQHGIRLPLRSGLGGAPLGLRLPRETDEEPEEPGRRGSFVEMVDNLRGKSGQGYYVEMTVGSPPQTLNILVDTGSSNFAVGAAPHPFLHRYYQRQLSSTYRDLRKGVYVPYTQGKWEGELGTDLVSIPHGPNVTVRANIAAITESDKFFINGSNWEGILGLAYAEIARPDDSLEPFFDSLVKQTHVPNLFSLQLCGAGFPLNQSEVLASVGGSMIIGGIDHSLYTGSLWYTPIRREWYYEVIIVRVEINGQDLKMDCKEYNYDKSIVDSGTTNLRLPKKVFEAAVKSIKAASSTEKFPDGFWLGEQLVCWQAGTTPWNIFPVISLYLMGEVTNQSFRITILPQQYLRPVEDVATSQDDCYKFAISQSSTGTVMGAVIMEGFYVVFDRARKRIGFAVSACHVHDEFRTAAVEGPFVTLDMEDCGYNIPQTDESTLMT

murine BACE1 ECD = biological target: murine BACE1 ECD
Chain of murine BACE1 ECD (single chain, as listed by the source limits assumed): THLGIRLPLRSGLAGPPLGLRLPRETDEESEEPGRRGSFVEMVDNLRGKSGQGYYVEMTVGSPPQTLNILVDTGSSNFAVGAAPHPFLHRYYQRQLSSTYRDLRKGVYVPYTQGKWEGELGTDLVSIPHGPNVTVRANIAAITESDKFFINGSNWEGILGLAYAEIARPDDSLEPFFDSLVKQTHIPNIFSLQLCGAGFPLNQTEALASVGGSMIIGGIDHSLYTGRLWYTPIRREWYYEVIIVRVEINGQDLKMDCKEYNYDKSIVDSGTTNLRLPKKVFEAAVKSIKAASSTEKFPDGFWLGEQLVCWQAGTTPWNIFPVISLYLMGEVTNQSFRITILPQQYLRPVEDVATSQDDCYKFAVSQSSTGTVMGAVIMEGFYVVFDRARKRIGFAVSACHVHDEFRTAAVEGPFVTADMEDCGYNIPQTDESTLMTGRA

[1] = biological target: BACE1 ECD (as used in the enzyme activity assay) (UniProt P56817 22-457, limits assumed)
Chain of BACE1 ECD (as used in the enzyme activity assay) (P56817 22-457 limits assumed): as the sequence (P56817 22-457) above

[2] = biological target: BACE1 endogenous to primary cortical neurons from E16.5 CD1 mice (mouse, UniProt P56818 46-501)
Chain of BACE1 endogenous to primary cortical neurons from E16.5 CD1 mice (P56818 46-501): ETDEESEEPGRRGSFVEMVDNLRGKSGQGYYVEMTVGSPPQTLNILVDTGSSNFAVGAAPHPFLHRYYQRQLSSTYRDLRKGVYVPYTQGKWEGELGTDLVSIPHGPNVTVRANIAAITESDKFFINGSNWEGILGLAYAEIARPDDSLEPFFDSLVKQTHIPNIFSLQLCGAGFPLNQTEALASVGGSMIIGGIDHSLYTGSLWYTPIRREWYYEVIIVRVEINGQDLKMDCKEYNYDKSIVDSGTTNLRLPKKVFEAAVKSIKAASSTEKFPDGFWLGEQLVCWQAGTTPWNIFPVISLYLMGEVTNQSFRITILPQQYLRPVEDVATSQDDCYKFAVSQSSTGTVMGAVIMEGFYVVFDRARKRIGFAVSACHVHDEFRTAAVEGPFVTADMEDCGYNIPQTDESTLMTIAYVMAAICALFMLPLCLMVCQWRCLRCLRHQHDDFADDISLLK
For % inhibition, FRET short substrate assay (negative = activation) in this document: test concentration or dose not given here.

Row | Binder | max % inhibition, Abeta x-40 in mouse cortical neurons [2] | also measured
1 | B1 | – | % inhibition, FRET short substrate assay (negative = activation) (human BACE1 ECD): 99%; % inhibition, FRET short substrate assay (negative = activation) (murine BACE1 ECD): 98%; EC50, FRET short substrate assay [1]: 24.3 nM; EC50, HTRF long substrate assay [1]: 164 nM
2 | B2 | – | % inhibition, FRET short substrate assay (negative = activation) (human BACE1 ECD): 56%; % inhibition, FRET short substrate assay (negative = activation) (murine BACE1 ECD): 50%; EC50, FRET short substrate assay [1]: 52.3 nM; EC50, HTRF long substrate assay [1]: 104 nM
3 | B3 | – | % inhibition, FRET short substrate assay (negative = activation) (human BACE1 ECD): 99%; % inhibition, FRET short substrate assay (negative = activation) (murine BACE1 ECD): 97%; EC50, FRET short substrate assay [1]: 7.88 nM; EC50, HTRF long substrate assay [1]: 171 nM
4 | B4 | – | % inhibition, FRET short substrate assay (negative = activation) (human BACE1 ECD): 63%; % inhibition, FRET short substrate assay (negative = activation) (murine BACE1 ECD): 60%; EC50, FRET short substrate assay [1]: 95.9 nM; EC50, HTRF long substrate assay [1]: 189 nM
5 | B5 | 74% | –
6 | B6 | 67% | –
7 | B7 | 62% | –
8 | B8 | 57% | –
9 | B9 | 71% | –
10 | B10 | 75% | –
11 | B11 | 65% | –
12 | B12 | 82% | –
13 | B13 | 83% | –
14 | B14 | 72% | –
15 | B15 | 71% | –
16 | B16 | 69% | –
17 | B17 | 67% | –
18 | B18 | 82% | –

Row | Binder | max % inhibition, Abeta x-40 in mouse cortical neurons [2] | also measured
19 | B19 | 63% | –
20 | B20 | 67% | –
21 | B21 | 85% | –
22 | B22 | 75% | –
23 | B23 | 74% | –
24 | B24 | 61% | –
25 | B25 | 73% | –
26 | B26 | 59% | –
27 | B27 | 69% | –
28 | B28 | 68% | –
29 | B29 | 63% | –
30 | B30 | 70% | –
31 | B31 | 71% | –
32 | B32 | 81% | –
33 | B33 | 85% | –
34 | B34 | 57% | –
35 | B35 | 67% | –
